The source of these data is article PMC8017925, “Structural basis for differential recognition of phosphohistidine-containing peptides by 1-pHis and 3-pHis monoclonal antibodies” (Proceedings of the National Academy of Sciences of the …, 2021).

The target of assay [1] is T1, ACLYana-3-pHis peptide (AGAG-3-pHis-AGAG).
T1 sequence (peptide, 3-phosphohistidine at position 5; biotin on the N-terminus): AGAGHAGAG
Description: BLI; N-terminally biotinylated peptides (20 nM) on streptavidin biosensors, varying concentrations of Fab in solution; 50 mM Hepes pH 8.0, 150 mM NaCl, 0.05% Tween-20, 0.2% BSA; association 120 s, dissociation 200 s; global fit to a 1:1 Langmuir model; Octet RED96e; in triplicate. (In general: BLI is a label-free optical method that tracks binding on a fibre tip over time.)

Assay [2] has as its target ACLYana-3-pTza peptide (AGAG-3-pTza-AGAG). The assay is described as above.
Substrate in assay [3]: SCS peptide, 3-pHis form
Description: BLI; biotinylated pHis peptides (20 nM) on streptavidin biosensors, Fab in solution at varying concentrations; 50 mM Hepes pH 8.0, 150 mM NaCl, 0.05% Tween-20, 0.2% BSA; Octet RED96e; global fit to a 1:1 Langmuir model.

Assay [4] deals with T2, NM23 peptide, 3-pHis form.
T2 sequence (peptide, biotin on the N-terminus; C-terminal amide; 3-phosphohistidine at position 5): RNIIHGSDS
The assay is described as above.

In assay [5] the target is T3, ACLY peptide, 3-pHis form.
T3 sequence (peptide, biotin on the N-terminus; C-terminal amide; 3-phosphohistidine at position 5): VQFGHAGAC
The assay is described as above.

Assay [6] deals with T4, Common-His peptide, 3-pHis form.
T4 sequence (peptide, biotin on the N-terminus; C-terminal amide; 3-phosphohistidine at position 5): GEQLHDLNA
The assay is described as above.

Assay [7] concerns the target ACLYana-3-pTza peptide (AGAG-3-pTza-AGAG). The assay can be described thus: BLI binding kinetics of 3-pHis Fabs with cognate pTza peptide. The note with it: triplicate; for Kd: BLI Octet RED96e, N-terminally biotinylated peptide (20 nM) on streptavidin biosensors, varying Fab concentration, 50 mM Hepes pH 8.0, 150 mM NaCl, 0.05% Tween-20, 0.2% BSA, association 120 s, dissociation 200 s, global fit 1:1 Langmuir; for ka / kd: BLI, immobilized biotinylated ACLYana-3-pTza, 1:1 Langmuir global fit. Here is the method:
(§1) Biolayer interferometry (BLI) studies were performed to determine the relative affinity of pHis Fabs to in situ phosphorylated His peptides versus the phosphomimetic substrates. The N-terminally biotinylated peptides were immobilized on streptavidin biosensors and the rate of association (ka) and dissociation (kd) were determined by varying the pHis Fab concentration. Equilibrium dissociation constants (KD) were determined by fitting the experimental data to a 1:1 Langmuir binding model. ACLYana-1-pTza and ACLYana-3-pTza peptides were used to determine affinity to 1-pHis and 3-pHis Fabs, respectively (Fig. 3 A–E and Table 1). […] The two isomers were separated from each other by passing the reaction through affinity columns containing 1-pHis mAbs using SC1-1 or SC50-3 IgGs or 3-pHis mAbs using SC39-4, SC44-8, and SC56-2 IgGs. The eluates thus contained either predominantly 1-pHis or 3-pHis peptides. These peptides were used to determine the affinity to their respective isomer class of pHis Fabs (Fig. 3 F–J, Table 1, and SI Appendix, Fig. S5). […] This experimental observation is well supported by the higher number of hydrogen bonds that support the SC44-8:3-pTza interaction compared to other pHis Fabs (SI Appendix, Table S5). […] There are at least three reasons for the lower affinity of the mAbs for pHis peptides compared to pTza peptides: The continuous hydrolysis of phosphate from the pHis peptides during the course of the experiment (SI Appendix, Fig. S6), a reduction in the number of hydrogen bond interactions due to one less nitrogen in the imidazole ring compared to triazolyl ring (Fig. 4 and SI Appendix, Fig. S8), and inherently different electronic properties of the imidazole and triazolyl rings in His and Tza, respectively ([20]).
(§2) Fig. 3. Binding kinetics of pHis Fabs with cognate pTza and pHis peptides. BLI studies of immobilized peptides (ACLYana-1/3-pTza and phosphorylated ACLYana) with varying concentrations of the pHis Fabs were carried out in triplicate on an Octet Red96e instrument (FortéBio). SC1-1 (A) and SC50-3 (B) pHis Fab interaction with their ACLYana-1-pTza peptides. SC39-4 (C), SC44-8 (D), and SC56-2 (E) pHis Fabs interactions with ACLYana-3-pTza peptides. SC1-1 (F), SC50-3 (G), SC39-4 (H), SC44-8 (I), and SC56-2 (J) pHis Fabs interactions with their affinity-purified ACLYana-pHis peptides are represented, Right. The experimental data are represented in the black dashed lines and the nonlinear least-squares fitting was represented in the red continuous lines. The χ^2 for the goodness of fit is under 1.0 for the all the plots.
(§3) The binding kinetics of pHis Fabs with the peptides (pTza and pHis) were evaluated with an Octet RED96e (FortéBio). Streptavidin-coated biosensors (FortéBio) were presoaked in buffer containing 50 mM Hepes pH 8.0, 150 mM NaCl, 0.05% Tween-20, and 0.2% BSA for 15 min. The biotinylated pTza peptides or pHis peptides (20 nM) with and without phosphoramidate treatment were coated onto these streptavidin biosensors and analyzed for their binding to varying concentrations of the pHis Fabs with an association time of 120 s and dissociation time of 200 s. The entire set of experiments was repeated three times. The data were analyzed using the Octet software (FortéBio) and the rates of association and dissociation were obtained by global fitting data to the 1:1 Langmuir interaction model.

Assay [8] concerns ACLYana-3-pHis peptide (AGAG-3-pHis-AGAG). Description: BLI binding kinetics of 3-pHis Fabs with affinity-purified pHis peptide. Conditions: for ka / kd / Kd: BLI, 1:1 Langmuir global fit, triplicate; for ka / kd: affinity-purified ACLYana-3-pHis peptide; for Kd: ACLYana phosphorylated with phosphoramidate (8 h, 23 °C), 3-pHis isomer affinity-purified on 3-pHis IgG column, immobilized on streptavidin biosensors, Hepes pH 8.0; for affinity for 3-pHis peptides, times (fold) weaker than for the 3-pTza peptide: ratio of BLI KD, 3-pHis versus 3-pTza peptide. How it is done: as §1, §2
as §3, with “model. […]” for “model.”
Peptides used in the DSF and BLI experiments were synthesized by the Salk Peptide Synthesis Core. These peptides were N-terminally biotinylated and C-terminally amidated. They were synthesized using standard Fmoc chemistry on a Gyros Protein Technologies Tribute peptide synthesizer with UV monitoring. Following the deprotection, peptides were analyzed by mass spectrometry and analytical HPLC by the Proteomics Core at Salk. The peptides were HPLC purified to 99% purity by 21st Century Biochemicals, Inc. The Fmoc-pTza’s were synthesized at 10 g scale for incorporation into the peptides. […]

B1: SC39-4 Fab (Fab, V domains shown)
VH: QSVEESGGRLVTPGGSLTLTCTVSGFSLSRYNMGWVRQAPGKGLEWIGWIPFRGSLKYATWATGRFTISRTSTTVDLRMTGLTAADTATYFCVRSSDGFDLWGPGTLVTISS
VL: DMTQTPASVEAVVGGTVTIKCQASRDTGDGLIWYQQKPGQPPKRLIYKASTVASGVPSRFKGRGSGTDFTLTISDLECADAATYYCHSNFYNRWTYGNAFGGGTEVVVK
What is called Kd is the equilibrium constant for the complex coming apart. What is called koff is the rate constant with which the complex falls apart. The term kon denotes the second-order rate constant of association. Consider B1, for which the dissociation constant (Kd) in assay [1] was 799 nM; in assay [2], 67 nM; in assay [3], 2320 nM; in assay [4], 2350 nM; in assay [5], 1420 nM; in assay [6], 3290 nM. Further, the off-rate (koff) was found to be 0.117 s⁻¹ in assay [1]; 0.011 s⁻¹ in assay [2]; 0.0521 s⁻¹ in assay [3]; 0.073 s⁻¹ in assay [4]; 0.0243 s⁻¹ in assay [5]; 0.0454 s⁻¹ in assay [6]. The on-rate constant (kon) is 147000 M⁻¹ s⁻¹ in assay [1]; 164000 M⁻¹ s⁻¹ in assay [2]; 22400 M⁻¹ s⁻¹ in assay [3]; 51400 M⁻¹ s⁻¹ in assay [4]; 72200 M⁻¹ s⁻¹ in assay [5]; 13800 M⁻¹ s⁻¹ in assay [6].

B2: SC39-4: Fab of rabbit 3-pHis-specific monoclonal antibody (antibody, V domains shown)
VH: B1 VH
VL: B1 VL
In assay [7], B2 returned a Kd of 67 nM, a ka of 164000 ± 1060 M⁻¹ s⁻¹ and a kd of 0.011 ± 1.6e-05 s⁻¹. For the same molecule, in assay [8], the ka amounted to 147000 ± 5780 M⁻¹ s⁻¹; the kd stood at 0.117 ± 0.0016 s⁻¹; the equilibrium dissociation constant (Kd) came to 799 nM; the “affinity for 3-pHis peptides, times (fold) weaker than for the 3-pTza peptide” value is 10 to 25 times.

B3: SC56-2 Fab (Fab, V domains shown)
VH: QSVEESEGGLIKPGGILTLTCTASGFSLSSYGFSWVRQAPGKGLEHIGYLHANGRAYYATWAKSRSTITRNTNLNTVTLQLTSLTAADTATYFCAKIGSVSDVAIWGPGTLVTISS
VL: DMTQTPSSTSAAVGGTVTINCQSSESIYNNKNLAWYQQKPGQSPRRLIYSISTLASGVSSRFKGSGSGTQFTLTISDVQCDDAATYYCVGYYYSGGYYYSGSAAYYAFGGGTEVVVK
As for B3, the Kd in assay [1] turned out to be 2420 nM; in assay [2], 96.6 nM; in assay [3], 6200 nM; in assay [4], 5700 nM; in assay [5], 3010 nM; in assay [6], 3600 nM. Further, the koff in assay [1] came out at 0.183 s⁻¹; in assay [2], 0.00939 s⁻¹; in assay [3] it was 0.136 s⁻¹; in assay [4], 0.126 s⁻¹; in assay [5] it was 0.15 s⁻¹; in assay [6], 0.127 s⁻¹. For the same molecule, the association rate constant (kon) in assay [1] is 75600 M⁻¹ s⁻¹; in assay [2], 97300 M⁻¹ s⁻¹; in assay [3], 22000 M⁻¹ s⁻¹; in assay [4] it was 22200 M⁻¹ s⁻¹; in assay [5] it was 50100 M⁻¹ s⁻¹; in assay [6], 35600 M⁻¹ s⁻¹.

B4: SC56-2: Fab of rabbit 3-pHis-specific monoclonal antibody (antibody, V domains shown)
VH: B3 VH
VL: B3 VL
As for B4, in assay [7], binding was put at a Kd of 96.6 nM, the ka stood at 97300 ± 1110 M⁻¹ s⁻¹ and the kd was found to be 0.00939 ± 1.78e-05 s⁻¹. In addition, in assay [8], the ka turned out to be 75600 ± 2170 M⁻¹ s⁻¹; the kd is 0.183 ± 0.00181 s⁻¹; binding was characterised by a dissociation constant (Kd) of 2420 nM; the “affinity for 3-pHis peptides, times (fold) weaker than for the 3-pTza peptide” value fell in the range of 10 to 25 times.
